Reference: paper PMC12192683

Target: low-density lipoprotein receptor-related protein 1 (LRP1), full-length, purified from human placenta (human) (UniProt Q07954)
Assay: SPR; Biacore 3000; receptor amine-coupled to CM5 chip; ligand flowed in HBS-P (0.01 M HEPES pH 7.4, 0.15 M NaCl, 0.005% P20) with 1 mM CaCl2, 10 ul/min, 25 C; kinetic fit to a 1:1 Langmuir model

Sequence of low-density lipoprotein receptor-related protein 1 (LRP1), full-length, purified from human placenta (human) (Q07954 20-4544): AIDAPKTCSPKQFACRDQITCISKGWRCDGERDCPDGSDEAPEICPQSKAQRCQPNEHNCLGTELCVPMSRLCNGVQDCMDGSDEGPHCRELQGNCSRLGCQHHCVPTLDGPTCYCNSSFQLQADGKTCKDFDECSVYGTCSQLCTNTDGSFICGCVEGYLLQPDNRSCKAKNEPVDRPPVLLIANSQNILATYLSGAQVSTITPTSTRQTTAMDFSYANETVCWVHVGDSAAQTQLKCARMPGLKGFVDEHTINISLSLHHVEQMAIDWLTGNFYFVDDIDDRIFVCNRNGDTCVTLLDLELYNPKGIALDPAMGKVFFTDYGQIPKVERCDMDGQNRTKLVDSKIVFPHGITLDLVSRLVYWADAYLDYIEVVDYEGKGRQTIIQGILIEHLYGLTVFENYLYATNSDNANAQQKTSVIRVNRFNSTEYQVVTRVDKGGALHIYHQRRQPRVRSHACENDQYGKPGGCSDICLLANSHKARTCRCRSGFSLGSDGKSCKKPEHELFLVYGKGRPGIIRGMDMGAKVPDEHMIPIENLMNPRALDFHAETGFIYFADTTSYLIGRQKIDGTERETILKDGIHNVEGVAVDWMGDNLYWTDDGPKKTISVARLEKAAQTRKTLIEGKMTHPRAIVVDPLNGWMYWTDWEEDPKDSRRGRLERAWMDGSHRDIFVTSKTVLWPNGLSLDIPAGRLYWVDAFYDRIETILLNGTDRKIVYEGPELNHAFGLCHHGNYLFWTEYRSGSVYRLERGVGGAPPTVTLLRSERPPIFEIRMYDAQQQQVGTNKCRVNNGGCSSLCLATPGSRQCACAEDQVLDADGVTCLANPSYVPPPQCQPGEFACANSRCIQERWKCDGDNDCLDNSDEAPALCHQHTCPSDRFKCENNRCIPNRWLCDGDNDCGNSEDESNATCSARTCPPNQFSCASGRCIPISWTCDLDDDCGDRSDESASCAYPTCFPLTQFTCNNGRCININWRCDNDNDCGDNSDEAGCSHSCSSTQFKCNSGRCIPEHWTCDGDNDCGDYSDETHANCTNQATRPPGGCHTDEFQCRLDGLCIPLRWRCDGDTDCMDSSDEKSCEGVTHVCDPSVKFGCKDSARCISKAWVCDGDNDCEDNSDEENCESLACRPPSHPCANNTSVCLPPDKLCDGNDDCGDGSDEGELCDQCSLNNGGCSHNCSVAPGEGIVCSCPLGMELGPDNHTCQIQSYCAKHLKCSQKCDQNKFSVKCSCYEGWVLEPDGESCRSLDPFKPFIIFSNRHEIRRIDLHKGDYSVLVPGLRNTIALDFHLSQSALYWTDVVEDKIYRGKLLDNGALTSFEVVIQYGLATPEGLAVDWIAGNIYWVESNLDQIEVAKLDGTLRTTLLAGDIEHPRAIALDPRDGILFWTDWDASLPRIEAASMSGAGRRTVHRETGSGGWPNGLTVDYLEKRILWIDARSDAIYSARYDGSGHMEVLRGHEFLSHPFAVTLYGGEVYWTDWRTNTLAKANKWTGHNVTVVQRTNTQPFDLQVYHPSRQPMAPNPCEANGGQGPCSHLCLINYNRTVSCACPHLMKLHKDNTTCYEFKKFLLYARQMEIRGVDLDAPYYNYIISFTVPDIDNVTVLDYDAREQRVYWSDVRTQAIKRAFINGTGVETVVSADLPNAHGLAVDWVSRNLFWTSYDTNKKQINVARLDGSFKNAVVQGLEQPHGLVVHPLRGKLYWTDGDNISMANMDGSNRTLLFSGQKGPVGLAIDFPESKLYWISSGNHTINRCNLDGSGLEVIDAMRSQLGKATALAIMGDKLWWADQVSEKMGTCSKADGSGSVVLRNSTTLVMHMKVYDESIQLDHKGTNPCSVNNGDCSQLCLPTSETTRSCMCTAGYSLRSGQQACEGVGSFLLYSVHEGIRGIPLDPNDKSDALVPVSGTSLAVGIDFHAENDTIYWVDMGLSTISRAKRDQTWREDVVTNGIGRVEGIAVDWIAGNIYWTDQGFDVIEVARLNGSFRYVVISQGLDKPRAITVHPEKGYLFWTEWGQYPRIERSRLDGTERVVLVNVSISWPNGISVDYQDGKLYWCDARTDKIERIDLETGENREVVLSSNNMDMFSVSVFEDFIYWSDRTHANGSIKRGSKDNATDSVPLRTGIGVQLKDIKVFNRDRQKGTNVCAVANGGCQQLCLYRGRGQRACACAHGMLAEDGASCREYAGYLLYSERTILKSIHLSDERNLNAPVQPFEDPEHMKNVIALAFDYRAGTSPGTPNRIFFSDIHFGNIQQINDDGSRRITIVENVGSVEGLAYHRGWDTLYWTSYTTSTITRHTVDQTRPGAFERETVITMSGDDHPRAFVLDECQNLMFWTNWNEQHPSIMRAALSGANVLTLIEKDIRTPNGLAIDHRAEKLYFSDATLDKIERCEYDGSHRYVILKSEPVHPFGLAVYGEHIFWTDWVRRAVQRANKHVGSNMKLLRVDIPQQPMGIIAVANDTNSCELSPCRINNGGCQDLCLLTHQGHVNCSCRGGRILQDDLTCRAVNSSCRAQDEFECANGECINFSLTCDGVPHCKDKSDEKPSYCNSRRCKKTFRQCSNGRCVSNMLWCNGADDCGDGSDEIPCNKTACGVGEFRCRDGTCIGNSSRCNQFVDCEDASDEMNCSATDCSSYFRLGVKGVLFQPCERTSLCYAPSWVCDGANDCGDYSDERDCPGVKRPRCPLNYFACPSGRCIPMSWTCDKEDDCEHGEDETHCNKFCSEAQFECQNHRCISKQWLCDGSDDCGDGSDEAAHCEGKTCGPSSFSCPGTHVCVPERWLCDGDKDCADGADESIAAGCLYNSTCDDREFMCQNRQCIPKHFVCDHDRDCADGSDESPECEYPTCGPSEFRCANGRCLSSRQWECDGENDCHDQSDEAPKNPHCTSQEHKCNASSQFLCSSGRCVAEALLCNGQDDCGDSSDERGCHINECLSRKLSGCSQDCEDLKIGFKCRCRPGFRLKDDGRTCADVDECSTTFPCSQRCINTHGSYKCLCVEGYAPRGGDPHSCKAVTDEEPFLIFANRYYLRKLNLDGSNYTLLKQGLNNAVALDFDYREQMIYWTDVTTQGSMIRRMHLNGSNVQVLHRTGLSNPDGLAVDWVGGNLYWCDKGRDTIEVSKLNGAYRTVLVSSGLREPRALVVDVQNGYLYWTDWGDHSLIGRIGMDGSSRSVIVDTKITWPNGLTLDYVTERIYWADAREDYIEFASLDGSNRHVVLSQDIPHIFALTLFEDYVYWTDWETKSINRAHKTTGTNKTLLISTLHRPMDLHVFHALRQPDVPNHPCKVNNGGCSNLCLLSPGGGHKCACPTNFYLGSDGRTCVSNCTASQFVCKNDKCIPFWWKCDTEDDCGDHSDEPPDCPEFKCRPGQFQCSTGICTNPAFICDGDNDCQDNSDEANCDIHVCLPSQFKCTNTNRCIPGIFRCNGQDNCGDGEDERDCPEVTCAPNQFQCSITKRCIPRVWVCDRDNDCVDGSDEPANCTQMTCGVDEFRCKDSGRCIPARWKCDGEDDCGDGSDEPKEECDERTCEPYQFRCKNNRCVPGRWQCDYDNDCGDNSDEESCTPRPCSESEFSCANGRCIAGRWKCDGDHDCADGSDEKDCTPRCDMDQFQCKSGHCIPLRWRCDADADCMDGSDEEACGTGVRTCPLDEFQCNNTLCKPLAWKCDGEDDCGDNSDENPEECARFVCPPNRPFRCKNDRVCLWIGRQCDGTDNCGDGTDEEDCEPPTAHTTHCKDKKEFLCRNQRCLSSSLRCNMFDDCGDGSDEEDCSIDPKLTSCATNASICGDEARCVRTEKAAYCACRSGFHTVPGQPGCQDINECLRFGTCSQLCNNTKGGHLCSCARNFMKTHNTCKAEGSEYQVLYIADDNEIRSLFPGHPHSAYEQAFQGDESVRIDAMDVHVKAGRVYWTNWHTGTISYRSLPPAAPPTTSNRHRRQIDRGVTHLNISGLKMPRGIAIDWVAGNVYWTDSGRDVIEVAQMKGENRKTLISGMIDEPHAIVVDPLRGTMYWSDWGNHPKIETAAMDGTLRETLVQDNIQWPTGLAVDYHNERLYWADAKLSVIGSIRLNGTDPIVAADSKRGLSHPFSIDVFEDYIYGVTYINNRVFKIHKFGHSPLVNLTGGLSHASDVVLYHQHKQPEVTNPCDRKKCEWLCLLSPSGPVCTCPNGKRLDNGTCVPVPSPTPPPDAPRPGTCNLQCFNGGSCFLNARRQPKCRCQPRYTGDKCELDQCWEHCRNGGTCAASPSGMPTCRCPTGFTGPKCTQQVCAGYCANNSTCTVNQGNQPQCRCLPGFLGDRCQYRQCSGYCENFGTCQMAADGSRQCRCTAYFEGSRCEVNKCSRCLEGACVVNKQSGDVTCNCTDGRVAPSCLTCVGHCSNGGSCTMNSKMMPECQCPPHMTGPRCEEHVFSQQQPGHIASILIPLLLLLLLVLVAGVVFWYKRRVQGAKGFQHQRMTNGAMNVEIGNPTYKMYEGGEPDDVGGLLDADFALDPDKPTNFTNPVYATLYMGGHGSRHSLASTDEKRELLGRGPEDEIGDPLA

In the case of “SARS-CoV-2 trimeric spike protein, stabilized in prefusion conformation (from UniProt P0DTC2 14-1273) (natural protein)”, the Kd is reported as 72 nM, the koff is reported as 0.00034 s⁻¹ and the kon is reported as 4800 M⁻¹ s⁻¹.
